Reference: paper PMC11315929, “A novel role for the peptidyl-prolyl cis-trans isomerase Cyclophilin A in DNA-repair following replication fork stalling via the MRE11-RAD50-NBS1 complex” (EMBO Reports, 2024)

Target: T1, recombinant human Strep-tagged CYPA (human, UniProt P62937 1-165)
T1 construct: Cyclophilin A (CYPA, PPIA), human; The methods also call such proteins Streptavidin-tagged; also called CYPA-Strep; source: E. coli BL21(DE3), purified (Strep-Tactin Superflow Plus cartridge, PD10 desalting)
T1 sequence (P62937 whole entry): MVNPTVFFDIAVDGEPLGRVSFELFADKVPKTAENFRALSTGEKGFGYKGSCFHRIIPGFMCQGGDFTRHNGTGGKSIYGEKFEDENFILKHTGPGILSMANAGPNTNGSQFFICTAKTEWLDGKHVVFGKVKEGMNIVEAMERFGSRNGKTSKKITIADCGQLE
Assay: pull-down; recombinant Strep-tagged CYPA and HIS-tagged FHA-BRCT1 combined, 30 min 4 °C; MagStrep type3 XT beads 1 h 4 °C in 100 mM Tris-Cl pH 8, 150 mM NaCl, 1 mM EDTA, 0.5 mg/ml BSA; elution with 50 mM biotin; western blot; beads alone as control
Settings: both partners purified

binding result: binds
B1: recombinant HIS-tagged human NBS1 peptide composed of FHA-linker-BRCT1 (aa 1-182), wild type (domain or fragment, UniProt O60934 1-182, looked up)
chain: MWKLLPAAGPAGGEPYRLLTGVEYVVGRKNCAILIENDQSISRNHAVLTANFSVTNLSQTDEIPVLTLKDNSKYGTFVNEEKMQNGFSRTLKSGDGITFGVFGSKFRIEYEPLVACSSCLDVSGKTALNQAILQLGGFTVNNWTEECTHLVMVSVKVTIKTICALICGRPIVKPEYFTEFLK
notes: NBS1 (nibrin), human, UniProt O60934, FHA-linker-BRCT1, aa 1-182; also called WT HIS-tagged FHA-BRCT1; NBS1 FHA-BRCT1 peptide; source: E. coli BL21(DE3), purified (HiTrap TALON Crude, PD10 desalting)
